In US20250243279A1 (published 2025):
Positions count from the first letter of the chain named. Values belong to the binder of their own block, whether it stands above or below them.

Legend:
MICB = biological target: T1, MICB (human, UniProt Q29980 23-383); assay: Carterra LSA SPR
T1 chain: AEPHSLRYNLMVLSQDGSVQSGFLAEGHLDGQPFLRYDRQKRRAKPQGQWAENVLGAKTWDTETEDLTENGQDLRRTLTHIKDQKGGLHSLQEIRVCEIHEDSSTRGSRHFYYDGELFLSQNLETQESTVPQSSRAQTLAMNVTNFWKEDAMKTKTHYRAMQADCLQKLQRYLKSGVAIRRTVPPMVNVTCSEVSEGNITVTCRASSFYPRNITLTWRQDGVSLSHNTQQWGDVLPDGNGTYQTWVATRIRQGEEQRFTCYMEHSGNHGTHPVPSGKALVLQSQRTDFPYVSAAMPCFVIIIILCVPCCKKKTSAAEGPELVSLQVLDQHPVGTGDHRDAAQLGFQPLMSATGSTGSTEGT

MICA = biological target: T2, MICA (human, UniProt Q29983 24-383); assay: Carterra LSA SPR
T2 chain: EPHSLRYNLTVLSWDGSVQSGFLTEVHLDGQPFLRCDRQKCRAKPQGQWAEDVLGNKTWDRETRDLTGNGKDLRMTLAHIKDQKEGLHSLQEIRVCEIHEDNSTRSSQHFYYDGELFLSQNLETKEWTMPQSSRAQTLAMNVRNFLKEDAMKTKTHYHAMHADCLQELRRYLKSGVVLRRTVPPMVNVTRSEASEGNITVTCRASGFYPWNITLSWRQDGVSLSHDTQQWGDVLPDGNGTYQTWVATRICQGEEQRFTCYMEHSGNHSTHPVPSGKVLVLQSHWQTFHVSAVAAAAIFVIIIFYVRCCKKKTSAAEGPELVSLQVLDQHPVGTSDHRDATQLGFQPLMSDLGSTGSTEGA

cynoMICA = assay: Carterra LSA SPR
CD16 = CD16 (UniProt P08637 17-208)
1A2 = assay: Carterra LSA SPR
1B11-2 = assay: Carterra LSA SPR
1C8 = assay: Carterra LSA SPR
1D7 = assay: Carterra LSA SPR
1D8 = assay: Carterra LSA SPR
1B6 = assay: Carterra LSA SPR
1H7 = assay: Carterra LSA SPR
1E1 = assay: Carterra LSA SPR
1D9 = assay: Carterra LSA SPR

Sequence of CD16 (P08637 17-208): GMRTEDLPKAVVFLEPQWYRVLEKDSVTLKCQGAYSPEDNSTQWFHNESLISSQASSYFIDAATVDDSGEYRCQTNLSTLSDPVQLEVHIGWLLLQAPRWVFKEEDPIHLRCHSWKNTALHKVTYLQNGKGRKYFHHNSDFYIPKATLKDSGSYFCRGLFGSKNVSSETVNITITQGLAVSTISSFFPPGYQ

Kd (MICB): 2.27 nM
Kd (MICA): 22.9 nM
B1: D103388_1C7 [MICA/B]_H0_D103388_1C7 [MICA/B]_L0 (antibody, V domains shown)
VH: QVQLRQSGPGLGQPSQSLSITCTVFGFSLTNYGVHWVRQSPGKGLEWLGMIWNDGFTDFNAAFISRLSISKDNSKSQVFFKMNSLQPSDTAIYYCASPYFHYAMDYWGQGTSVTVSS
VL: QIVLTQSPAIMSASLGERVTMTCTASSSVSSSYLHWYQQKPGSSPKLWIYSTSNLASGVPARFSGSGSGTSYSLTISSMEAEDAATYYCHQYHRSPFTFGSGTKLEIK

Kd (cynoMICA): 23.8 nM
B2: 1C7 (antibody, V domains shown)
VH: B1 VH
VL: B1 VL

Kd (MICB): 52.8 nM
Kd (MICA): 40.3 nM
B3: D94837_1E11_1 [MICA/B]_H0_D94837_1E11_1 [MICA/B]_L0 (antibody, V domains shown)
VH: EIQLQQSGPELVKPGASVKVSCKASGYAFTSYNMYWVKQSHGKSLEWIGYIDPYNGGTIYNQKFKGKATLTVDKSSSTAYMLLNSLTSEDSAVYYCARVGDAYPFAYWGQGTLVTVSA
VL: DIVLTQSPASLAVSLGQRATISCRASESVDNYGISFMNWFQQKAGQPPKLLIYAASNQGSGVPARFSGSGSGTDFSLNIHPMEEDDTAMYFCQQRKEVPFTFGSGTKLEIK

Kd (cynoMICA): 19.6 nM
B4: 1E11-1 (antibody, V domains shown)
VH: B3 VH
VL: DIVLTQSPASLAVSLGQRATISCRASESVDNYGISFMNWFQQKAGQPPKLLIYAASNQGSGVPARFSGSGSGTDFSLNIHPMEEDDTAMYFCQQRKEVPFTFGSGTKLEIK

Kd (MICB): 4.68 nM
Kd (MICA): 16.7 nM
B5: 2E12 (antibody, V domains shown)
VH: QVQLQQSGAELVRPGTSVKVSCKASGYAFTNYLIEWVKQRPGQGLEWIGGINPGSGSTNYNEKFKGKATLTADKSSSTAYMQLSTLTFDDSAVYFCARLGGNYVDYWGQGTTLTVSS
VL: DIQMTQSPASLSASVGETVTITCRASGNIHNYLAWYQQKQGKSPQLLVYNAKTLADGVPSRFSGSGSGTQYSLKINSLQPEDFGSYYCQHFWSTPRTFGGGTKLEIK

Kd (CD16): 102 nM
B6: XENP41023 (antibody)
heavy: EVQLLESGGGLVQPGGSLRLSCAVSGFSLSSYGVIWVRQAPGKGLEYVSWVSSGGSTNYASSVKGRFTISRDTSKNTVYLQMNSLRAEDTAVYFCARGATNSGTDIWGPGTLVTVSSASTKGPSVFPLAPSSKSTSGGTAALGCLVKDYFPEPVTVSWNSGALTSGVHTFPAVLQSSGLYSLSSVVTVPSSSLGTQTYICNVNHKPSDTKVDKKVEPKSCDKTHTCPPCPAPELLGGPDVFLFPPKPKDTLMISRTPEVTCVVVDVSHEDPEVKFNWYVDGVEVHNAKTKPREEEYNSTYRVVSVLTVLHQDWLNGKEYKCKVSNKALPAPIEKTISKAKGQPREPQVYTLPPSREEMTKNQVSLTCDVSGFYPSDIAVEWESDGQPENNYKTTPPVLDSDGSFFLYSKLTVDKSRWEQGDVFSCSVMHEALHNHYTQKSLSLSPGK
scFv-Fc: EVQLLESGGGLVQPGGSLRLSCAVSGFSLSSYGVIWVRQAPGKGLEYVSWVSSGGSTNYASSVKGRFTISRDTSKNTVYLQMNSLRAEDTAVYFCARGATNSGTDIWGPGTLVTVSSGKPGSGKPGSGKPGSGKPGSDIVMTQSPSSLSASVGDRVTITCRASQSINSWLSWYQQKPGKPPKLLIYGASNLASGVPSRFKGSGSGTDFTLTISSLQPEDFATYYCQNNYGIIAAGATFGGGTKVEIKEPKSSDKTHTCPPCPAPELLGGPDVFLFPPKPKDTLMISRTPEVTCVVVDVSHEDPEVKFNWYVDGVEVHNAKTKPREEQYNSTYRVVSVLTVLHQDWLNGKEYKCKVSNKALPAPIEKTISKAKGQPREPQVYTLPPSREQMTKNQVKLTCLVKGFYPSDIAVEWESNGQPENNYKTTPPVLDSDGSFFLYSKLTVDKSRWQQGNVFSCSVMHEALHNHYTQKSLSLSPGK
light: DIVMTQSPSSLSASVGDRVTITCRASQSINSWLSWYQQKPGKPPKLLIYGASNLASGVPSRFKGSGSGTDFTLTISSLQPEDFATYYCQNNYGIIAAGATFGGGTKVEIKRTVAAPSVFIFPPSDEQLKSGTASVVCLLNNFYPREAKVQWKVDNALQSGNSQESVTEQDSKDSTYSLSSTLTLSKADYEKHKVYACEVTHQGLSSPVTKSFNRGEC

Kd (CD16): 120 nM
B7: XENP41024 (antibody)
heavy: B6 heavy with D239S, I332E
scFv-Fc: B6 scFv-Fc with D271S, I364E
light: B6 light

Kd (MICB): 9.77 nM
Kd (MICA): 42.4 nM
B8: 2F7 (antibody, V domains shown)
VH: QVHLKQSGAELVRPGASVKLSCKASGYTFTDYYIDWMNQRPGQGLEWIARIYPGSGNSYYNEKFKGKATLTAEKSASTAHMQLSSLTSEDSAVYFCAREGPTGVAPHWYFDVWGTGTTVTVSS
VL: DIVMSQSPSSLSSYLGDRVTISCRASQDIGNYLNWYQQKPDGTVKLLIYSTSRLHSGVPSRFSGSGSGTDYSLTISNLEQEDVATYFCQQGNTLPWTFGGGTKLEIK

Kd (MICB): 0.807 nM
Kd (MICA): 0.599 nM
B9: 2E5 (antibody, V domains shown)
VH: EVKLVESGGGLVQPGGSLKLSCATSGFTFSDYYMFWVRQTPEKRLEWVAYISEGGGSTYYPDTIKGRFTISRDNAKNTLYLQMSRLRSEDTAMYYCVRQRGAYNRYDDGRGFAYWGQGTLVTVSA
VL: DVLMTQTPLSLPVSLGDQASISCRSSQSIVHSNGNTYLEWYLQKPGQSPKLLIYKVSNRFSGVPDRLSGSGSGTDFTLKISRGEAEDLGVYYCFQGSHVPWTFGGGTKLEIK

Kd (MICB): 2.59 nM
Kd (MICA): 17.8 nM
B10: D99136_2C11 [MICA/B]_H0_D99136_2C11 [MICA/B]_L0 (antibody, V domains shown)
VH: DVQLQESGPGLVKPSQSLSLTCSVTGYSITSGYNWDWIRHSPGNKLEWMGYISYDGSTNYNPSLKNRISITRDTSKNQFFLKLNSVTTEDTATYYCASSYYRYFDYWGQGTTLTVSS
VL: DVQMTQTTSSLSASLGDRVTISCSASQGISNYLNWFQQKPDGTVKLLIYYTSSLHSGVPSRFSGSGSGTDYSLTISNLEPEDIATYYCQQYTKLPWTFGGGTELEIK

Kd (1A2): 2.13 nM
Kd (1B11-2): 2.83 nM
Kd (1C8): 20.6 nM
Kd (1D7): 0.344 nM
Kd (1D8): 46.7 nM
Kd (1B6): 5.85 nM
Kd (1H7): 75 nM
Kd (1E1): 12.2 nM
Kd (1D9): 12.8 nM
B11: huMICA (ligand)
chain: T2 chain

Kd (1A2): 0.181 nM
Kd (1B11-2): 1.11 nM
Kd (1C8): 7.72 nM
Kd (1D7): 1.47 nM
Kd (1D8): 4.5 nM
Kd (1B6): 1.05 nM
Kd (1H7): 254 nM
Kd (1E1): 2.23 nM
Kd (1D9): 0.453 nM
B12: huMICB (ligand)
chain: T1 chain
